Key:
Conditions in all cases: glycan lost; control: wild type
[1] = selective uptake of [3H]COE from HDL
[2] = [3H]cholesterol release from cells to HDL
[3] = flow cytometry, extracellular-domain antibody
[4] = cell surface biotinylation, immunoblot densitometry
[5] = cholesterol oxidase sensitivity, cholestenone by TLC

B1: SR-BI (scavenger receptor class B type I; CLA-1): T175A (protein)
parent chain: MGCSAKARWAAGALGVAGLLCAVLGAVMIVMVPSLIKQQVLKNVRIDPSSLSFNMWKEIPIPFYLSVYFFDVMNPSEILKGEKPQVRERGPYVYREFRHKSNITFNNNDTVSFLEYRTFQFQPSKSHGSESDYIVMPNILVLGAAVMMENKPMTLKLIMTLAFTTLGERAFMNRTVGEIMWGYKDPLVNLINKYFPGMFPFKDKFGLFAELNNSDSGLFTVFTGVQNISRIHLVDKWNGLSKVDFWHSDQCNMINGTSGQMWPPFMTPESSLEFYSPEACRSMKLMYKESGVFEGIPTYRFVAPKTLFANGSIYPPNEGFCPCLESGIQNVSTCRFSAPLFLSHPHFLNADPVLAEAVTGLHPNQEAHSLFLDIHPVTGIPMNCSVKLQLSLYMKSVAGIGQTGKIEPVVLPLLWFAESGAMEGETLHTFYTQLVLMPKVMHYAQYVLLALGCVLLLVPVICQIRSQVGAGQRAARADSHSLACWGKGASDRTLWPTAAWSPPPAAVLRLCRSGSGHCWGLRSTLASFACRVATTLPVLEGLGPSLGGGTGS
For B1, which “other: transport activity” value [1] is on record?
Its value is “decreases”.

And the “other: free cholesterol efflux” value [2]?
The value was “decreases”.

And the localisation_or_trafficking [3]?
Its localisation_or_trafficking is “decreases”.

And the “localisation_or_trafficking, percent_of_wt” value [4]?
The value was “decreases, more than 50% less vs 100”.

What about the “other: plasma membrane free cholesterol redistribution” value [5] of the same protein?
The value was “decreases”.
